Experimental data as given in patent US20250136719A1 (TECHNION RESEARCH AND DEVELOPMENT FOUNDATION, published 2025).

Target: T1, latent 65 kDa heparanase (Hpa65) (UniProt Q9Y251 36-543, limits assumed)
T1 construct: Single-chain latent 65 kDa form coated on the ELISA plate; also called recombinant 65 kDa latent pro-heparanase; pro-heparanase
T1 sequence (looked up): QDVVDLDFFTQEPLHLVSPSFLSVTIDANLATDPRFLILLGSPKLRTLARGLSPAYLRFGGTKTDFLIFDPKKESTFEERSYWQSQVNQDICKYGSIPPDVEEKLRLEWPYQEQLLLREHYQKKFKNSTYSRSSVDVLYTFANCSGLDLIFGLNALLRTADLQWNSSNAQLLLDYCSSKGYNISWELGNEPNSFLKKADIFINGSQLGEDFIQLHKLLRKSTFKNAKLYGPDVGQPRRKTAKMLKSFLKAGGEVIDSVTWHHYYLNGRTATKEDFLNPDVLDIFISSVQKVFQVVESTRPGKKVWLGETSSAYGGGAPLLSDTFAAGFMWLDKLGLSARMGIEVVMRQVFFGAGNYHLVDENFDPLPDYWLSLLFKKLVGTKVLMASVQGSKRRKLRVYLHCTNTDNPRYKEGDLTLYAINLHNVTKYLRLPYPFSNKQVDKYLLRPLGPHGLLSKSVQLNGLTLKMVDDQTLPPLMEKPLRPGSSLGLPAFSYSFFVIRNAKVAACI
Assay: ELISA, antibody titrated on plate coated with latent 65 kDa heparanase
Experimental: An ELISA method was applied to characterize the preferential recognition of heparanase by mAb A54 vs. control mouse IgG (FIG. 2A). For this purpose, microtiter 96-well plate was coated with latent 65 kDa heparanase (Hpa65). Purified (protein G Sepharose) mAb A54 or control mouse IgG were then added at the indicated concentrations and the extent of binding to the immobilized heparanase was determined by ELISA. […] Next, the purified A54 mAb was subjected SDS-PAGE (FIG. 2B) and Western blot (FIG. 2C, Secondary antibody: Goat Anti-Mouse Kappa-HRP) analyses to further characterize the purity, molecular weight and isotype of the antibody light and heavy chains. Lanes M1 and M2: Protein Marker; Lane 1: Reducing condition; Lane 2: Non-reducing condition; Lane P: Mouse IgG1, Kappa as a positive control. (Ab: antibody: Goat Anti-Mouse IgG-HRP). Briefly, mAb A54 was expressed in 293F cells applying the pcDNA3.4 expression vector and serum free (Expi293F) medium. The antibody isotype was characterized as IgG1-Kappa.

IC50: 0.45 nM
B1: mAb A54 (antibody, IgG1, V domains shown)
VH: QVQLQQSGAELAKPGASVRMSCKASGYTFTNYWMHWVKQRPGQGLEWIGYINPTTGYTEYNQKFKDKATLTADKSSSTAYMQLSSLTSEDSAVYYCARGGAGYDYDEDYAMDYWGQGTSVTVSS
VL: DIVLTQSPASLAVSLGQRATISCRASESVEYFGTSYMNWYQQKPGQPPKLLIYLASILESGIPARFSGSGSGTDFTLNIHPVEEEDAATYYCQQSNEDPYTFGGGTKLEIK
notes: Murine monoclonal antibody, IgG1-Kappa; Purified on protein G from hybridoma, also expressed in 293F cells; also called A54 mAb; A54 antibody
